Target: the molecule itself
Assay: cryo-EM structure

B1: MinCys EAAT3 K269C/W441C crosslinked using Hg2+ (EAAT3-X) (natural protein, human, UniProt P43005 1-524, looked up)
chain: MGKPARKGAEWKRFLKNNWVLLSTVAAVVLGITTGVLVREHSNLSTLEKFYFAFPGEILMRMLKLIILPLIISSMITGVAALDSNVSGKIGLRAVVYYFATTLIAVILGIVLVVSIKPGVTQKVGEIARTGSTPEVSTVDAMLDLIRNMFPENLVQAAFQQYKTKREEVKPPSDPEMTMTEESFTAVMTTAISKTKTKEYKIVGMYSDGINVLGLIVFALVFGLVIGKMGEKGQILVDFFNALSDATMKIVQIIMWYMPLGILFLIAGCIIEVEDWEIFRKLGLYMATVLTGLAIHSIVILPLIYFIVVRKNPFRFAMGMAQALLTALMISSSSATLPVTFRCAEENNQVDKRITRFVLPVGATINMDGTALYEAVAAVFIAQLNDLDLGIGQIITISITATSASIGAAGVPQAGLVTMVIVLSAVGLPAEDVTLIIAVDCLLDRFRTMVNVLGDAFGTGIVEKLSKKELEQMDVSSEVNIVNPFALESTILDNEDSDTKKSYVNGGFAVDKSDTISFTQTSQF
modifications: Hg2+ crosslink between C269 and C441
B1: binds.
